The values that follow come from the Immune Epitope Database (IEDB).

Some targets named below: HLA-B*35:01; HLA-B*58:01; HLA-B*15:01; HLA-A*31:01; HLA-B*27:05; HLA-B*51:01; HLA-B*07:02.
Common to all, as to assay: IEDB peptide-MHC binding, purified MHC/direct/fluorescence; filed as Kd, often an IC50 or EC50 that approximates it; ≥ and ≤ were set here for values at or beyond the usual limits of such assays
The next assay concerns the target HLA-B*39:01. As to conditions: source organism: Yellow fever virus.
Another assay addresses HLA-A*03:01. As to conditions: source organism: Yellow fever virus.
Another assay concerns the target HLA-B*40:01. As to conditions: source organism: Yellow fever virus.
A further assay has as its target HLA-A*01:01. Conditions: source organism: dengue virus type 2.
Setting [1] is: source organism: Yellow fever virus.
[2] abbreviates: source organism: dengue virus type 2.
The mark [3] stands for this setting: source organism: dengue virus type 4.
The mark [4] stands for this setting: source organism: dengue virus type 1.
Setting [5] is: source organism: dengue virus type 3.

As for LAVMGDAAW, the Kd in the assay with HLA-B*35:01 (setting [1]) was no more than 0.001 µM; with HLA-B*58:01 (setting [1]), 0.003 µM.

For KLQLKGMSY, the Kd with HLA-B*15:01 (setting [2]) turned out to be 0.111 µM.

In the case of KTNDRKWCF, the Kd in the assay with HLA-B*58:01 (setting [1]) came out at 0.058 µM. That is a double-digit nanomolar value.

In the case of STMPLVMAW, in the assay with HLA-B*58:01 (setting [3]), the Kd stood at 0.003 µM. That is a single-digit nanomolar value.

Consider TKDTNDNNL, for which the Kd with HLA-B*39:01 came to 0.136 µM.

Turning to KLEGKIVQY, the Kd with HLA-B*15:01 (setting [4]) was determined as 0.126 µM.

Sequence KIMKVVNRW gave a Kd with HLA-B*58:01 (setting [1]) of 0.037 µM.

Take VLIEVNPPF: the dissociation constant Kd was found to be 0.069 µM with HLA-B*15:01 (setting [1]) and 0.039 µM with HLA-B*35:01 (setting [1]).

Sequence ERWFVRNPF displayed a Kd with HLA-B*39:01 of no less than 20 µM.

Take LTLKGTSYK: the dissociation constant (Kd) with HLA-A*03:01 came to 0.104 µM; in the assay with HLA-A*31:01 (setting [1]), 0.518 µM.

For the sequence ISYIMLIFF, the Kd in the assay with HLA-B*58:01 (setting [1]) was 1.05 µM.

On to TLYAVATTF, for which the Kd with HLA-B*15:01 (setting [2]) was 0.133 µM.

Consider GEAMDTISV, for which the Kd with HLA-B*39:01 was no less than 20 µM; with HLA-B*40:01, no more than 0.001 µM.

The sequence KSAHGSPTF displayed a Kd with HLA-B*58:01 (setting [1]) of 0.036 µM. In other words, the double-digit nanomolar range.

In turn, FHERGYVKL returned an equilibrium dissociation constant (Kd) with HLA-B*39:01 of 0.035 µM.

On to ITAHLKRLW, for which the Kd with HLA-B*58:01 (setting [1]) was determined as 0.046 µM.

As to KQIANELNY, the dissociation constant Kd in the assay with HLA-B*15:01 (setting [5]) is 0.113 µM.

Take MVIFFMSPK: the Kd in the assay with HLA-A*03:01 worked out at 0.61 µM; with HLA-A*31:01 (setting [1]), 1.4 µM.

Turning to YRNALSMMP, the Kd in the assay with HLA-B*27:05 (setting [1]) was no less than 20 µM.

For the sequence RTWHYCGSY, the equilibrium dissociation constant (Kd) in the assay with HLA-B*15:01 (setting [1]) is 0.068 µM.

For AQEDDQYVF, the dissociation constant Kd in the assay with HLA-B*15:01 (setting [3]) was determined as 0.081 µM.

In the assay with HLA-B*27:05 (setting [4]), RRDKRSVAL yielded a Kd of 0.052 µM.

For the sequence SRLTYQWHK, the Kd with HLA-B*27:05 (setting [1]) was determined as 0.016 µM.

In the assay with HLA-B*27:05 (setting [1]), KRVVASLMR displayed a Kd of 0.107 µM.

Consider KTWGKNLVF, for which the Kd with HLA-B*58:01 (setting [1]) was 0.019 µM.

Take AQAVMEMTY: the Kd with HLA-B*15:01 (setting [1]) stood at 0.056 µM.

With KTWAYHGSY, the Kd with HLA-A*01:01 and with HLA-A*31:01 (setting [2]) was no less than 20 µM in each case.

Sequence VSGKLIHEW gave a dissociation constant (Kd) with HLA-B*58:01 (setting [5]) of 0.032 µM.

SRLLMRRMR: the Kd with HLA-B*27:05 (setting [1]) stood at 0.295 µM.

For the sequence SSARYDVAL, the Kd in the assay with HLA-B*39:01 worked out at 0.377 µM.

Regarding PHAATIRVL, the dissociation constant Kd in the assay with HLA-B*39:01 was found to be 0.96 µM.

The sequence SQEAEFTGY showed a Kd with HLA-B*15:01 (setting [1]) of 0.094 µM.

As for CRTAFKPVL, the equilibrium dissociation constant (Kd) in the assay with HLA-B*39:01 turned out to be 2.06 µM. In other words, the single-digit micromolar range.

The sequence SIQDNQVAY came in with a dissociation constant Kd with HLA-B*15:01 (setting [1]) of 0.217 µM.

As for VRGGMVAPL, the dissociation constant (Kd) in the assay with HLA-B*39:01 is 5.37 µM. In other words, the single-digit micromolar range.

Sequence FHKRDMRLL displayed an equilibrium dissociation constant (Kd) with HLA-B*39:01 of no less than 20 µM.

As to ESWIVDRQW, the dissociation constant Kd in the assay with HLA-B*58:01 (setting [1]) was found to be 0.123 µM.

FTMRLLSPV had an equilibrium dissociation constant (Kd) in the assay with HLA-B*51:01 (setting [4]) of no less than 20 µM.

On to FRKGSSIGK, for which the Kd with HLA-B*27:05 (setting [3]) is 0.052 µM.

KRAAAGIMK came in with a Kd in the assay with HLA-B*27:05 (setting [2]) of 0.075 µM.

Consider GMGEAAAIF, for which the Kd in the assay with HLA-B*15:01 (setting [4]) came to 0.029 µM.

Take SQHNYRPGY: the Kd with HLA-B*15:01 (setting [4]) came out at 0.022 µM.

IQYVIRAQL: the dissociation constant Kd with HLA-B*39:01 was determined as 0.682 µM.

RADEINAIL gave a dissociation constant (Kd) with HLA-B*39:01 of 0.156 µM.

For the sequence YLAGAGLAF, the Kd in the assay with HLA-B*15:01 (setting [4]) was 0.011 µM; in the assay with HLA-B*35:01 (setting [4]) it was 0.004 µM.

WRTIMAVLF came in with a Kd with HLA-B*27:05 (setting [3]) of 0.232 µM.

In the assay with HLA-B*58:01 (setting [5]), ICSAVPVHW showed a Kd of 0.076 µM. This counts as double-digit nanomolar.

In turn, YRLRGEARK registered a Kd with HLA-B*27:05 (setting [4]) of 0.086 µM.

With RREKRSVAL, the Kd in the assay with HLA-B*27:05 (setting [3]) came to 0.4 µM.

With ILRNPGFAL, the Kd with HLA-B*07:02 (setting [3]) was 0.002 µM.

For the sequence RMGERQLQK, the results for the equilibrium dissociation constant (Kd) with HLA-A*03:01 and with HLA-A*31:01 (setting [1]) were 0.34 µM and 0.187 µM, respectively.

Consider RQLQKIERW, for which the Kd with HLA-B*58:01 (setting [1]) was found to be 0.067 µM.

In turn, KQLGQVMLL gave a dissociation constant Kd with HLA-B*27:05 (setting [3]) of 0.129 µM. That is a sub-micromolar value.

Take RKHGGMLVR: in the assay with HLA-B*27:05 (setting [4]), the Kd was 0.348 µM.

In the assay with HLA-B*58:01 (setting [3]), KAYAQMWSL displayed a dissociation constant Kd of 0.01 µM.

Take ITAAAWYLW: the Kd with HLA-B*58:01 (setting [2]) amounted to 0.046 µM.

For the sequence GMMGGLWKY, in the assay with HLA-B*15:01 (setting [1]), the Kd was determined as 0.032 µM.

Consider ICSAVPSHW, for which, in the assay with HLA-B*58:01 (setting [2]), the Kd was determined as 0.394 µM.

Consider RTWAYHGSY, for which the Kd turned out to be 0.037 µM in the assay with HLA-A*31:01 (setting [3]) and 0.012 µM with HLA-B*15:01 (setting [3]).

With MPRSIGGPV, the Kd worked out at 0.005 µM with HLA-B*07:02 (setting [1]) and 0.858 µM with HLA-B*51:01 (setting [1]).

In turn, AATIRVLAL had a dissociation constant (Kd) with HLA-B*07:02 (setting [1]) of 0.204 µM. That is a sub-micromolar value.

A word on the Kd: it is a measure of binding affinity in units of concentration.
